Values quoted from earlier work, collected in paper PMC9010944.

Biological target: PDGF-BB (Homo sapiens) (UniProt P01127)
Sequence (P01127 82-190): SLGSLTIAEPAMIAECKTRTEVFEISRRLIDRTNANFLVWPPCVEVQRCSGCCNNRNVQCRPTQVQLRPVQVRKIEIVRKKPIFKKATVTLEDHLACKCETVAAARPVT

Sequence of Perlecan domain III-2 (P98160 924-1324): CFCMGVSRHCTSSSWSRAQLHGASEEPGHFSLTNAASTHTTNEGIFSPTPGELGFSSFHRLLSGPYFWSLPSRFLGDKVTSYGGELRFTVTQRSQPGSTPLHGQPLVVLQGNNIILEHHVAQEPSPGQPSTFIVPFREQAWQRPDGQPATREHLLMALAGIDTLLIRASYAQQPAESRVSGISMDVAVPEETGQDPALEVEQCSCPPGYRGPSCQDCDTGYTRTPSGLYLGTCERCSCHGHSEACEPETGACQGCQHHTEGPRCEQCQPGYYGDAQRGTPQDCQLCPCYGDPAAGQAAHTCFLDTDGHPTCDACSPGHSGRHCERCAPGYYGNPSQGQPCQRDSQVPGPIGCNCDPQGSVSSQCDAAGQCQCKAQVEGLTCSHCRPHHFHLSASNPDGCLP

Kd: 8 nM
Substance: Perlecan domain III-2 (from UniProt P98160)
